Source: article PMC3813429, “New Insight to Structure-Function Relationship of GalNAc Mediated Primary Interaction between Insecticidal Cry1Ac Toxin and HaALP Receptor of Helicoverpa armigera” (PLoS ONE, 2013)

Biological target: Cry1Ac WT toxin (Bacillus thuringiensis)
Assay: SPR
Details: both partners purified

B1: HaALP, membrane bound alkaline phosphatase of Helicoverpa armigera (receptor)
chain: HWLHPAAPAAASRAETSANYWAQDAQAAINARLERVESVKKAHNVIMFLGDGMSVPTLAAARTLLGQRQGKTGEETKLHFETFPTIGLVKTYCVDAQIADSACTATAYLCGVKNNYGAIGVDGTVRRGDCQAASNTATHVESIAEWALADGRDVGIVTTTRITHASPAGTFAKTANRTWENDGEVSQMGLDAKDCPDIAHQLVHHHPGNKFKVIFGGGRRAFLPNTVQDDEGSYGRRIDNRDLIQEWKNDKDSRNVSHQYLWQREQLMNLNDDLPEYMLGLFESSHMEYHLKSDPQTEPTLAELTEVAIRSLRRNEKGFFLFVEGGRIDHAHHDNLVELALDETLEMDKAVATATKMLSEDDSLIVVTADHAHVMTINGYSGRGNDILGPSRDVGRDRMPYMTLSYTNGPGFRPHVNDIRQNVTAEPNYRTLDWESHVDVPLVDETHGGDDVAVFARGPHHSMFTGLYEQSQLPHLMAYAACIGPGRHACASAAHLPSAHFFVALPALFISILLR
modifications: glycan with α-GalNAc at the non-reducing terminal (site not stated)
  Kd: 7.68 nM
  koff: 0.00129 s⁻¹
  kon: 168000 M⁻¹ s⁻¹
